From US20090298197, “SERS-BASED METHODS FOR DETECTION OF BIOAGENTS” (OXONICA MATERIALS INC., published 2009) come the findings set out here.

The target in data set [1] is ovalbumin (UniProt P01012 P01012:2-386). Description: negative control, little signal; nanowire fluorescence beacon. The conditions noted are these: label: TAMRA 3'; no hairpin. As to the method: Probe assembly was performed as for standard molecular beacons. The assay was performed by diluted the thrombin protein with Tris-HCl buffer to attain desired concentration. Then 50 μl thrombin protein solution was mixed with 3 μl nanowire assembled aptamer probe in a microfuge tube and incubated for 30 min, with rotation at room temperature. The contents were centrifuged, washed with 0.1% Tween-20/PBS once and fluorescence images acquired using fluorescence microscope described above.
As expected no fluorescence was observed, due to the fluorescence quenching of the TAMRA by the nanowire. However, when the thrombin protein was added to the reaction by incubating 10 μg/ml thrombin with 3 μl nanowire-Apt1 assembled probes for 30 min, fluorescence was restored. An investigation into the effect of the hairpin in the beacons was carried out. […] This sequence was therefore used for subsequent experiments. […] When this experiment was repeated in 50% serum, the detection limit was again approximately 50 nM (FIG. 15B). These are very encouraging results. Finally, it is important to understand the specificity of the assay, in addition to the sensitivity. THR Apt 3 assembled nanowires were incubated with a pair of homologous proteins, α Thrombin and β Thrombin, and with ovalbumin as a negative control, and a blank (labeled control). […]

In data set [2] the target is T1, alpha-thrombin (UniProt P00734;P00734 P00734:328-363,P00734:364-622). Description: nanowire fluorescence beacon; highest signal to noise; thrombin detected at about 50 nM in buffer and in 50% serum (detection limit, not Kd); greatest signal wi.
Data set [3] deals with T1, alpha-thrombin. Description: fluorescence restored on nanowire beacon with 10 ug/ml thrombin (form not specified), Tris-HCl, 30 min, room temperature.

ovalbumin, sequence (P01012 2-386, one chain of several): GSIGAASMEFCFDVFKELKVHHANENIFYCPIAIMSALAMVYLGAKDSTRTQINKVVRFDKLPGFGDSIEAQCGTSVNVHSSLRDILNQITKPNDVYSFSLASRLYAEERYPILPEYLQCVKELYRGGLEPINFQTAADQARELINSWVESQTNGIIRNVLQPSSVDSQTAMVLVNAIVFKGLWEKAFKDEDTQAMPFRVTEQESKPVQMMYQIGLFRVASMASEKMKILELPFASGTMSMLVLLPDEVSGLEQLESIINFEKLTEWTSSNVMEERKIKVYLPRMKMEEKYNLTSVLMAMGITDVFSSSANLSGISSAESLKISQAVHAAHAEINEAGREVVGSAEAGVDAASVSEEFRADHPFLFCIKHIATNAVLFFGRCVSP

B1: THR Apt3 (ssDNA)
DNA: TGGTTGGTGTGGTTGG
modifications: 5' thiol-(CH2)6, 3' (CH2)7-TAMRA, assembled on Au/Ag nanowires
B1: the binding result is “no binding” in data set [1] and “binds” in data set [2].

B2: THR Apt1 (ssDNA)
DNA: CCAACGGTTGGTGTGGTTGG
modifications: 5' thiol-(CH2)6, 3' (CH2)7-TAMRA, assembled on Au/Ag nanowires
Take B2: the binding result in data set [3] is “binds”.
